For the assay, the target named is T1, G990 (Homo sapiens (Human), UniProt P0DOX5 218-449 = IgG part).
T1 construct: GL-2045 background (IgG1 hinge-CH2-CH3-IgG2 hinge) with G236R; homodimeric unit that multimerizes; also called stradomer G990
The assay can be described thus: BLI (ForteBio Octet), His-tagged receptor on sensor tip; summary grade. On the procedure: Binding of general stradomers or parent stradomer GL-2045 to FcγRI, FcγRIIb, FcγRIIIa, FcγRIIa, was assessed. RU values of dissociation were measured by biolayer interferometry using a ForteBio Octet instrument. His-tagged receptor proteins were bound to the sensor tip in 1X kinetic analysis buffer from ForteBio after which the on rate of the receptor/protein was measured by transferring the sensor tip to a 1x kinetics buffer containing the purified stradomer of choice. Off rate was measured by transferring the sensor tip to a 1X kinetics buffer, and RU value was calculated from the measured maximum binding using the ForteBio software. Biolayer interferometry detects the binding between a ligand immobilized on the biosensor tip surface and an analyte in solution. When binding occurs it produces an increase in optical thickness at the biosensor tip, which results in a wavelength shift (detected as a response unit of “RU”). The maximum binding level (RU max) is the maximum possible amount of sample binding at equilibrium that saturates the amount of ligand on the sensor surface. The RU 300 is the residual sample binding after 300 seconds of dissociation and is useful to characterize the rate of dissociation of the test article from the test ligand.

B1: FcγRIIa (receptor, UniProt P12318 34-217, looked up)
chain: QAAAPPKAVLKLEPPWINVLQEDSVTLTCQGARSPESDSIQWFHNGNLIPTHTQPSYRFKANNNDSGEYTCQTGQTSLSDPVHLTVLSEWLVLQTPHLEFQEGETIMLRCHSWKDKPLVKVTFFQNGKSQKFSHLDPTFSIPQANHSHSGDYHCTGNIGYTLFSSKPVTITVQVPSMGSSSPMG
notes: also called His-tagged receptor protein; CD32; not shown: His tag
Take B1: the binding result is listed as “no binding”.

B2: FcγRIIb (receptor, UniProt P31994 43-217, looked up)
chain: TPAAPPKAVLKLEPQWINVLQEDSVTLTCRGTHSPESDSIQWFHNGNLIPTHTQPSYRFKANNNDSGEYTCQTGQTSLSDPVHLTVLSEWLVLQTPHLEFQEGETIVLRCHSWKDKPLVKVTFFQNGKSKKFSRSDPNFSIPQANHSHSGDYHCTGNIGYTLYSSKPVTITVQAP
notes: as for B1
B2: the binding result is reported as “no binding”.

Source of the values: US20190389941A1 (GLIKNIK, published 2019).
